Values quoted from earlier work, collected in patent publication US20080113011A1, “Compositions and methods for enhanced mucosal delivery of interferon beta” (Nastech Pharmaceutical Company Inc., priority 2002, published 2008).
Read-outs that look alike come from different tables or passages of the source.

Conditions: anesthetized rats

For “human growth hormone: human growth hormone given nasally to anesthetized rats with or without N-acetyl-L-cysteine”, the nasal bioavailability (with N-acetyl-L-cysteine (ACS)) is given as 12.2% and the nasal bioavailability (without N-acetyl-L-cysteine) is given as 7.5%.
